Reference: article PMC6180485, “Elongation/Termination Factor Exchange Mediated by PP1 Phosphatase Orchestrates Transcription Termination” (Cell Reports, 2018)
Non-standard residues stand in square brackets, D forms with d. No end group written: not given here. pS = N[C@@H](COP(=O)(O)O)C(=O)O; FAM = 5'-fluorescein amidite

T1: Double-repeated Ser5P (Schizosaccharomyces pombe)
T1 chain: {FAM}-YSPT[pS]PSYSPT[pS]PS

T2: S. pombe Pcf11 CID1-139 with an N-terminal His6-SUMO tag (S. pombe)
T2 chain: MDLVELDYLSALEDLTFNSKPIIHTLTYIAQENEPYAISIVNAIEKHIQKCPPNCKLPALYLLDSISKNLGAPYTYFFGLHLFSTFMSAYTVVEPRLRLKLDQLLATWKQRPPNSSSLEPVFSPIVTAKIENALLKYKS

T3: S. cerevisiae Pcf11 CID1-144 (S. cerevisiae, UniProt P39081 1-144)
T3 chain: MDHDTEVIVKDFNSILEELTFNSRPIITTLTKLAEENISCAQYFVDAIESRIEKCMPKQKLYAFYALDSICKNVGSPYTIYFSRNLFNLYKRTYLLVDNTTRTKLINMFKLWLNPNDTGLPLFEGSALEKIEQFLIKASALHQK

B1: Rpb4, subunit of S. pombe Pol II (natural protein, UniProt O74825 1-135, looked up)
chain: MPRAIFEEDAAQLKLGPEFENEDMLTVSEAKILIETVLAQRARETNGEIPMTDVMKKTVAYFNVFARFKTAEATYACERILGNRFHKFERAQLGTLCCEDAEEARTLIPSLANKIDDQNLQGILDELSTLRKFQD
notes: Rpb4, RNA polymerase II subunit, S. pombe; stood in the assay as a subunit of m11; source: endogenous, S. pombe (Rpb9-Flag strain), purified as part of Pol II (anti-Flag M2 agarose, HiTrap Q)
B2: Rpb3, subunit of S. pombe Pol II (natural protein, UniProt P37382 1-297, looked up)
chain: MDSETHITIRNISKNSVDFVLTNTSLAVANSLRRVVLAEIPTVAIDLVEINVNTSVMPDEFLAHRLGMIPLDSSNIDEPPPVGLEYTRNCDCDQYCPKCSVELFLNAKCTGEGTMEIYARDLVVSSNSSLGHPILADPKSRGPLICKLRKEQEISLRCIAKKGIAKEHAKWSPTSAVAFEYDPWNKLQHTDYWFENDADAEWPKSKNADWEEPPREGEPFNFQEEPRRFYMDVESVGSIPPNEIMVQGLRILQEKLAVLVRDLDEEQPTQLSANELNMEENAEMNWSPYQNGEENTW
notes: Rpb3, RNA polymerase II subunit, S. pombe; stood in the assay as a subunit of m11; source: endogenous, S. pombe (Rpb9-Flag strain), purified as part of Pol II (anti-Flag M2 agarose, HiTrap Q)
B3: Rpb7, subunit of S. pombe Pol II (natural protein, UniProt O14459 1-172, looked up)
chain: MPFFLKELSLTISLHPSYFGPRMQDYLKAKLLADVEGTCSGQYGYIICVLDSNTIDIDKGRVVPGQGFAEFEVKYRAVLWRPFRGEVVDAIVTTVNKMGFFANIGPLNVFVSSHLVPPDMKFDPTANPPNYSGEDQVIEKGSNVRLKIVGTRTDATEIFAIATMKEDYLGVL
notes: Rpb7, RNA polymerase II subunit, S. pombe; stood in the assay as a subunit of m11; source: endogenous, S. pombe (Rpb9-Flag strain), purified as part of Pol II (anti-Flag M2 agarose, HiTrap Q)
B4: S. cerevisiae Rtt103 CID (domain or fragment)
chain: MPFSSEQFTTKLNTLEDSQESISSASKWLLLQYRDAPKVAEMWKEYMLRPSVNTRRKLLGLYLMNHVVQQAKGQKIIQFQDSFGKVAAEVLGRINQEFPRDLKKKLSRVVNILKERNIFSKQVVNDIERSLKTESSPVEALVLPQKLKDFAKDYEKLVKMHH
B5: Rpc10, subunit of S. pombe Pol II (natural protein, UniProt P48011 1-63, looked up)
chain: MNHPTSTGGTAFNPPRPATMIYLCADCGARNTIQAKEVIRCRECGHRVMYKMRTKRMVQFEAR
notes: Rpc10, RNA polymerase subunit, S. pombe; stood in the assay as a subunit of m11; source: endogenous, S. pombe (Rpb9-Flag strain), purified as part of Pol II (anti-Flag M2 agarose, HiTrap Q)
B6: Rpb5, subunit of S. pombe Pol II (natural protein, UniProt Q09191 1-210, looked up)
chain: MSAEEKNIVRVFRAWKTAHQLVHDRGYGVSQAELDLTLDQFKAMHCGMGRNLDRTTLSFYAKPSNDSNKGTIYIEFAKEPSVGIKEMRTFVHTLGDHNHKTGILIYANSMTPSAAKIIATVTGQFTIETFQESDLIVNITHHELVPKHILLSPDEKKELLDRYKLRETQLPRIQLADPVARYLGLKRGEVVKIVRRSETSGRYNSYRICA
notes: Rpb5, RNA polymerase subunit, S. pombe; stood in the assay as a subunit of m11; source: endogenous, S. pombe (Rpb9-Flag strain), purified as part of Pol II (anti-Flag M2 agarose, HiTrap Q)
B7: S. cerevisiae Nrd1 CID1-152 (domain or fragment)
chain: MQQDDDFQNFVATLESFKDLKSGISGSRIKKLTTYALDHIDIESKIISLIIDYSRLCPDSHKLGSLYIIDSIGRAYLDETRSNSNSSSNKPGTCAHAINTLGEVIQELLSDAIAKSNQDHKEKIRMLLDIWDRSGLFQKSYLNAIRSKCFAM
B8: S. pombe Seb1 CID1-148 (domain or fragment)
chain: MSGIAEFDGILDSLEHSKTGISGSKILKLTNLSMENVSENAQFVASVYKYAKRAPVTHKLGALYILDSIVRSFQDGAKKNNESFENPVDASFSGGWCKAAEITDSLVADAIQHAPSAHLPKILKLCDIWEKASTFPPEKLESLRSKLK
B9: Full-length Seb1 with C-terminal His8-tag (natural protein, S. pombe, UniProt Q9UTE3 1-620, looked up)
chain: MSGIAEFDGILDSLEHSKTGISGSKILKLTNLSMENVSENAQFVASVYKYAKRAPVTHKLGALYILDSIVRSFQDGAKKNNESFENPVDASFSGGWCKAAEITDSLVADAIQHAPSAHLPKILKLCDIWEKASTFPPEKLESLRSKLKDAMASTEPVSVDSAAAPSQSTNPEGNGGSVGSQAAAPTSRPVENDAASILEALAAFAQKAPVPSAAEESVSTPPQPAVAPSVSAVVPNLPVHPATAINAQSQSGNPLSNPLFQPSNVPQSIPSGPMGMKTGSVNDTQSQQITLMNVLASQNVPPAQIDSIMKAAFPNYNAPFQPAGVGSVPLPAPTSSQSLRLGSLHRSRSPSPRSGRPRRSPSPSHLSIPSTLPPADGVPKPTPDGFPRRFERDPTIPPDSIKVYSRTLFLGGITRSVREPVLRSMFERFGSVQSLILNHNYRHGFLKMFRRDAAEKAQVAMENVPFADTTIRTKWGVGFGPRECSDFSTGISVIPIRLLTDADRTWLVTAEYGGTGGLPITPGIALDEPDIEIGLGISSKAISKRGKDFAMRRDERFRGRKPYRGGPPIHHGERHFDSGNDWHGNPSTVPPPTNPYNPGYPYMDPNYSSGYVSQPPWQPQ
notes: Seb1, S. pombe, full length; fractions containing monomeric Seb1 were used; also called Seb1(full-length)-His8; recombinant Seb1; source: E. coli Rosetta, purified (Ni-NTA, Superdex 200); not shown: His8, C-terminal, kept

How the values were obtained:
[1] = target: B9; assay: cross-linking; BS3 lysine-lysine cross-linking of reconstituted Seb1:Pol II (6:1 or 4:1 molar ratio) in CB buffer (50 mM HEPES pH 7.6, 150 mM NaCl), 30 min at 4 °C, mass spectrometry (pLink); details: both partners purified
[2] = target: T1, Double-repeated Ser5P; assay: FP
[3] = target: T2, S. pombe Pcf11 CID1-139 with an …; assay: FP
[4] = target: T3, S. cerevisiae Pcf11 CID1-144; assay: FP
[5] = target: B7; assay: FP
[6] = target: B4; assay: FP
[7] = target: B8; assay: FP
[8] = target: T4, Rpb1, subunit of S. pombe Pol II (S. pombe, UniProt P36594 1-1752, CTD phosphorylated (Thr4P, Tyr1P, Ser2P, Ser5P detected by western blot)); assay: cross-linking; BS3 lysine-lysine cross-linking of reconstituted Seb1:Pol II (6:1 or 4:1 molar ratio) in CB buffer (50 mM HEPES pH 7.6, 150 mM NaCl), 30 min at 4 °C, mass spectrometry (pLink); details: both partners purified
T4 construct: Rpb1, largest subunit of RNA polymerase II, S. pombe; stood in the assay as a subunit of m11; source: endogenous, S. pombe (Rpb9-Flag strain), purified as part of Pol II (anti-Flag M2 agarose)
T4 sequence (P36594 whole entry): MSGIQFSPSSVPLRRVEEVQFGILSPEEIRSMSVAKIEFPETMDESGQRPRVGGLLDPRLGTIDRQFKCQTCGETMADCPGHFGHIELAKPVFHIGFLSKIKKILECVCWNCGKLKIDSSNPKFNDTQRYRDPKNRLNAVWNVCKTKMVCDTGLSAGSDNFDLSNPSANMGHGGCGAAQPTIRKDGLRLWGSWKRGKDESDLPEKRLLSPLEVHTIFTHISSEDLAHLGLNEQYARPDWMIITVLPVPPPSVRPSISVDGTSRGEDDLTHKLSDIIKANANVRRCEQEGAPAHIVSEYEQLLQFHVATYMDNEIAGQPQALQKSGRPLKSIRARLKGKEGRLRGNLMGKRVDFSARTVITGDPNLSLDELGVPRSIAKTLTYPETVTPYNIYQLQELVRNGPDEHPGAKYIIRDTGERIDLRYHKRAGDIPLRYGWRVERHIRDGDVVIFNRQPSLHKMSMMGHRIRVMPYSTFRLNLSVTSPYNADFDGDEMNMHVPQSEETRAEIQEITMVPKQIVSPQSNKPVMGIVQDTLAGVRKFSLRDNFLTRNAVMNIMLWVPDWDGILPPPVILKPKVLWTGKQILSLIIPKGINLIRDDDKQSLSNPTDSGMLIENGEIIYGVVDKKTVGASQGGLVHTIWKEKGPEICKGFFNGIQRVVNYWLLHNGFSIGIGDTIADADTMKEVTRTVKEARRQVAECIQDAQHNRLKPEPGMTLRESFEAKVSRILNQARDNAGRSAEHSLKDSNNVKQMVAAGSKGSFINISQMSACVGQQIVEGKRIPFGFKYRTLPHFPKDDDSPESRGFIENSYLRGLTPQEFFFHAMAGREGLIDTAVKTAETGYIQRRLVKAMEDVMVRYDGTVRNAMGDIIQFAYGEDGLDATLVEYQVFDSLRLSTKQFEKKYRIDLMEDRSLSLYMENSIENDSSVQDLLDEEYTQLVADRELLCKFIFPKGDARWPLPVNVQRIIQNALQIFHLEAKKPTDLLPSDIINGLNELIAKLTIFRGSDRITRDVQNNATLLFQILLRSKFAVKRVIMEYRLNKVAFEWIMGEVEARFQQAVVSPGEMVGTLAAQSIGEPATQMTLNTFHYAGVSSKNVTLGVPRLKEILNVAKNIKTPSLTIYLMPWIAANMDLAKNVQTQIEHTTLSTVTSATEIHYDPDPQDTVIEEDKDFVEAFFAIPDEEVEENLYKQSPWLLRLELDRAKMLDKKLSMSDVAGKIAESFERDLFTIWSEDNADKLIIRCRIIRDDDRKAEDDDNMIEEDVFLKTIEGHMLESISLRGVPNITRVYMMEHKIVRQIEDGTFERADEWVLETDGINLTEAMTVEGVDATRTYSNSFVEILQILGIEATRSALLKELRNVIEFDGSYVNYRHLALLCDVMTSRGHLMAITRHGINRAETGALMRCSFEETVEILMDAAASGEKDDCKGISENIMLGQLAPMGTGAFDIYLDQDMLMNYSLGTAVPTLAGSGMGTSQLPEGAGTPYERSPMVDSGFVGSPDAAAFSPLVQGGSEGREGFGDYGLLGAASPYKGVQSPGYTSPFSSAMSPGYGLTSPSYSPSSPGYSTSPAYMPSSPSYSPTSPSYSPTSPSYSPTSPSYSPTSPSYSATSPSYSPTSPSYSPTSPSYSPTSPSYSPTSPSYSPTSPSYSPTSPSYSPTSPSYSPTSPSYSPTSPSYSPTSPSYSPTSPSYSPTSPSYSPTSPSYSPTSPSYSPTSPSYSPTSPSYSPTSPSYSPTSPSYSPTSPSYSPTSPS

[9] = target: T5, Rpb2, subunit of S. pombe Pol II (S. pombe, UniProt Q02061 1-1210); assay: as above; details: both partners purified
T5 construct: Rpb2, RNA polymerase II subunit, S. pombe; stood in the assay as a subunit of m11; source: endogenous, S. pombe (Rpb9-Flag strain), purified as part of Pol II (anti-Flag M2 agarose, HiTrap Q)
T5 sequence (Q02061 whole entry): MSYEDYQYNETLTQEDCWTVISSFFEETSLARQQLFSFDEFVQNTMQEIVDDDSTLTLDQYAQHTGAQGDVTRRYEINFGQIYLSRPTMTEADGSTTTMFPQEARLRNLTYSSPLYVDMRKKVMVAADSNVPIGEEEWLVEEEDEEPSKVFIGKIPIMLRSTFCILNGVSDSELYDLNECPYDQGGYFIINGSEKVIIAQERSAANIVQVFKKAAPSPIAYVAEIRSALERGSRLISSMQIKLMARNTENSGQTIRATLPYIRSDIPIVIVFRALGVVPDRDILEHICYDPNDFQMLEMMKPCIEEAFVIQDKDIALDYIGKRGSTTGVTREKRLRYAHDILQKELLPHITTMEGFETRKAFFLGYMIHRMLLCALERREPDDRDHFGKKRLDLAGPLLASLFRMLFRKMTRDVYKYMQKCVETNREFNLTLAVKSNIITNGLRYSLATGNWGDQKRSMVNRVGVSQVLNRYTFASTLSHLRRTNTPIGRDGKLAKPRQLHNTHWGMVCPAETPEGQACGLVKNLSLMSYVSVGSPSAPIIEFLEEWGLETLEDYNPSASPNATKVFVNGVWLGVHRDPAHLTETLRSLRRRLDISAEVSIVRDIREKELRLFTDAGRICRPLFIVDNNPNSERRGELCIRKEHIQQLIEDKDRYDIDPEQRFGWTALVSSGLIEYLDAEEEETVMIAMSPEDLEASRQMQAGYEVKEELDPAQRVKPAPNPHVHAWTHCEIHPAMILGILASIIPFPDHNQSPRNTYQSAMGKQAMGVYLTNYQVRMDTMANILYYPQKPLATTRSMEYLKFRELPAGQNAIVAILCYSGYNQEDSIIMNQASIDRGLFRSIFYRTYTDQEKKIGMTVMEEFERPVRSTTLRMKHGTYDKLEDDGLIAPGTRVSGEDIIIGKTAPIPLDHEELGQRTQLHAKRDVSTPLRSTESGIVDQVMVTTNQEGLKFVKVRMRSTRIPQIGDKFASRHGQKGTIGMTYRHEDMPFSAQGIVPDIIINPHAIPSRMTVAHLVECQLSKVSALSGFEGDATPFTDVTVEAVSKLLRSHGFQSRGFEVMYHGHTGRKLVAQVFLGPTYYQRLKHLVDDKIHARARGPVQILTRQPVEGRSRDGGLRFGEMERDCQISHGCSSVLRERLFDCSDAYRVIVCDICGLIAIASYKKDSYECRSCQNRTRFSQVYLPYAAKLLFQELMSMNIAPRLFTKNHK

B1
binding result [1]: binds

B2
binding result [1]: binds

B3
binding result [1]: binds

B4
Kd [2]: > 1000 µM

B5
binding result [1]: binds

B6
binding result [1]: binds

{FAM}-YSPTSPSYSPTSPS (also: phospho-Ser2 of heptad, which repeat not given here) [FAM-labeled two-repeat CTD peptide, Ser2P]
Kd [3]: 48.1 µM
Kd [4]: 127 µM
Kd [5]: 126 µM
Kd [6]: 32.3 µM
Kd [7]: 72.3 µM

B7
Kd [2]: 65.8 µM

B8
Kd [2]: 281 µM

B9
binding result [8]: binds
binding result [9]: binds
